Measurements from the DeepSol protein solubility set.

Experiment: soluble on expression in E. coli; label from the status in PepcDB or PDB records

| Sequence | soluble on expression in E. coli |
| --- | --- |
| MSIPLLEYKPSSQNQRVPGYEVPNEDTPRIYRIEDAAYDSELKELIWATYRQVFSEHVILKFFRQGNLESQLKNRAISVRDFVRGLAKSEAFKTLVIKSNSNYRLVELALKRLLGRAPYNKDEEIAWSIKIATNGWDGFVDALLDSEEYQSNFGENIVPYQRRRYKDRPFNLVTPRYGNYWRDKLESERYIEGDIKNFLELAKSIEIKTVTFTPVSTANIKIPDTTRNTTPTGIPISVNPSANFPVRLEHHHHHH | not soluble |
| MSIQIPRGTQDILPGTVELWQYIEGQAREICRRYNYKEIRTPIFEHTELFLRGVGDTTDIVQKEMYSFQDRGERSLTLRPEGTAPVVRSYVENKMFGDATQPTKLYYIGQMFRYERPQAGRYRQFVQFGIEAIGSNDPAIDAEVIALAVEFYRGMGLKNIKVVLNSLGDAASRQAHRDALIAHFEPRIGEFCSDCQSRLEKNPLRILDCKKDRNHELMGTAPSITEYLNEDSAVYYDKVQELLTMMDVPFEKDPNLVRGLDYYQHTVFEIMSEAEGFGAITTLSGGGRYNGLVQEIGGPEMPGIGFAMSIERLIMALKAENIELPIEHSIDCYVVALGEKAKDHAAKVAFDLRKAGLAVEKDYLDRKMKAQFKSADRLKAKFVAVLGEDELDKGIINLKDMATGEQEEVALDVFASYVAEKLI | soluble |
| MSISQNNFLTMFPVTYTFENGVYSTIINQNTIQTPIPNPIQHHIQNHIQTSIPNTNLLLENVQTDVQKLMVPLIDQQFHIPTSTPLQLAPIPTQIQSQLQPQISQIPIHNQPQIQIQSQVQPQLPTQSQPKPSSKASLDTSSNAFKKYVNPFAPEATVPLPVELEDQYGPYSSSVWKRNERERCRVRNVNDGYERLRKHLPVHFDEKRISKVDTLRLAIRYIKHLDNLLRSELHQYNCKCFNGFQEESEGNILIDISTFNFNSSNNAM | not soluble |
| MSITEDIDDLKTAIENNEPIRKGIEETMHRASQIRIKQRYNCAEQEVTQMRAPFLGFSVFVRFQSRARAHTIKIINEDEVEQMLASSPVPYS | not soluble |
| MSITLSDSAAARVNTFLANRGKGFGLRLGVRTSGCSGMAYVLEFVDEPTPEDIVFEDKGVKVVVDGKSLQFLDGTQLDFVKEGLNEGFKFTNPNVKDECGCGESFKLAAALDHHHHHH | soluble |
| MSIVSISYNQEEYIREALDGFAAQRTEFPVEVIIADDASTDATPRIIGEYAARYPQLFRPILRQTNIGVHANFKDVLSAARGEYLALCEGDDYWTDPLKLSKQVKYLDRHPETTVCFHPVRVIYEDGAKDSEFPPLSWRRDLSVDALLARNFIQTNSVVYRRQPSYDDIPANVMPIDWYLHVRHAVGGEIAMLPETMAVYRRHAHGIWHSAYTDRRKFWETRGHGMAATLEAMLDLVHGHREREAIVGEVSAWVLREIGKTPGRQGRALLLKSIADHPRMTMLSLQHRWAQTPWRRFKRRLSTELSSLAALAYATRRRALEGRDGGYRETTSPPTGRGRNVRGSHA | not soluble |
| MSIYEFDSEEEYATFVNWIEAKKPSITDCSIETFNDDLEDFDRLDEDGLYIEYTRVLLDNLNVTKSMDLMIPTHSSFEFSQDFHLDAVRLRSCFGRNNLFNFHCKEIEVSDSEISSENVNQYLRAWAAGCYNELEKLEVLFYGNENKFDWKPLLQGLNRKRTIYEHNIIDPEVTDETTEVKIETEHPGEFDYYYYKWAKIHRKVDSEGNFYMGMIVN | not soluble |
| MSKADPSKGPAPACPGPDPAPRRPTRYVVPPGAVDTHAHVIGLPPTYPFVDARSYTPPAATPESYLAMLDATGMTYGVVVQVSVHGTDNRLMLETLQAHRDRLKGIAVIPLGLPDKELAALKDAGVVGLRLNILYGGGIGFERVGEYAAMAKELGWHLQFLIDAKDLVPLAPQLGGLPVPFIVDHWGHFPVSRGIDDPGFQTLVSLVRDGAWVKLSGAYRNTVAGFPYLDTIPFARLLHETAPDRCVWGSDWPHVATWQHMMNVGELLDLLADWVPDAAARDRVFTDNAYRLYGFTPVQGLEHHHHHH | not soluble |
| MSKAVIDTGVFVDYIDRKSPLHDVARNVINSIGQLEVLLPYVTIAEICYVTARVLREAGIEEWLEKSVEFVEWLQRHPAVEVVCSTELDVEAAKVKLRYGLALADCYVLALSKLKNCKAVFRKREKEMPDKVEKDFDVIFLEDYVGGDR | not soluble |
| MSKDAKSPKKLRSNRAALTHKVGYALRHPERVGPYVRRAGRDAWLRVKHPDHVGYYRAVMASDARRSPEAAVGSRTHDRWLALGQMQFDYLVEHGLRPGHRMLDIGCGNLRGGWRFIDHLDSGHYYGVDISPDILIAAKKTLTERGLQAKLPHLTITGDLRLEFLPDDHFDVVHAHSVFSHSPLNVIDECLAHVGRVLTDTGFFDFTFDRTEGTEHQVLREDFYYRTDTLLTLAAQHNLHARFMEDWEKRPHGQSKIRVSRSPLPSLEHHHHHH | not soluble |
| MSKEDFVIKPEAAGASTDTSEWPLLLKNFDKLLVRSGHYTPIPAGSSPLKRDLKSYISSGVINLDKPSNPSSHEVVAWIKRILRCEKTGHSGTLDPKVTGCLIVCIDRATRLVKSQQGAGKEYVCIVRLHDALKDEKDLGRSLENLTGALFQRPPLISAVKRQLRVRTIYESNLIEFDNKRNLGVFWASCEAGTYMRTLCVHLGMLLGVGGHMQELRRVRSGALSENDNMVTLHDVMDAQWVYDNTRDESYLRSIIQPLETLLVGYKRIVVKDSAVNAVCYGAKLMIPGLLRYEEGIELYDEIVLITTKGEAIAVAIAQMSTVDLASCDHGVVASVKRCIMERDLYPRRWGLGPVAQKKKQMKADGKLDKYGRVNENTPEQWKKEYVPLDNAEQSTSSSQETKETEEEPKKAKEDSLIKEVETEKEEVKEDDSKKEKKEKKDKKEKKEKKEKKDKKEKKEKKEKKRKSEDGDSEEKKSKKSKK | not soluble |
| MSKGASAPQQQSAFKQLYTELFNNEGDFSKVSSNLKKPLKCYVKESYPHFLVTDGYFFVAPYFTKEAVNEFHAKFPNVNIVDLTDKVIVINNWSLELRRVNSAEVFTSYANLEARLIVHSFKPNLQERLNPTRYPVNLFRDDEFKTTIQHFRHTALQAAINKTVKGDNLVDISKVADAAGKKGKVDAGIVKASASKGDEFSDFSFKEGNTATLKIADIFVQEKGKDALNKAADHTDGAKVKGGAKGKGKAAAKAAKGKKLSAKKGDSSAADVRKSVDKIVKYTPSKGSRKDTPQKSQAPAAGKSSAKKGGKKAVPSAPSPSGKKSALTTDKMTMAQFVKYLDWHEKKKGGKVSSGGKVLGKRSAGKASATSGKASKASKKTAAKK | soluble |
| MSKGEKMKIKVGVLGATGSVGQRFVQLLADHPMFELTALAASERSAGKKYKDACYWFQDRDIPENIKDMVVIPTDPKHEEFEDVDIVFSALPSDLAKKFEPEFAKEGKLIFSNASAYRMEEDVPLVIPEVNADHLELIEIQREKRGWDGAIITNPNCSTICAVITLKPIMDKFGLEAVFIATMQAVSGAGYNGVPSMAILDNLIPFIKNEEEKMQTESLKLLGTLKDGKVELANFKISASCNRVAVIDGHTESIFVKTKEGAEPEEIKEVMDKFDPLKDLNLPTYAKPIVIREEIDRPQPRLDRNEGNGMSIVVGRIRKDPIFDVKYTALEHNTIRGAAGASVLNAEYFVKKYI | soluble |
| MSKIKRVLISVSDKTGIIEFAKELSKYNIEILSTGGTSKTLKDAGINVIDVSEHTQFPEIMNGRVKTLHPLIHGGILADRDNPEHLDAMLKNHIGQIDMVVVNLYPFVNTVKSGADFDTCIENIDIGGPSMVRSCAKNHKHTTIVTNPSQYDLVIKEMAENDGKTTLATRREFAKEAFAHTAEYDSHIANWFSKELDEEYPEKLFSVGTLKQVLRYGENPHQKAAVYSTDADCVSITNARQLQGKELSYNNLNDADGAFEMVCEYSEPSCAIIKHANPCGIASGKNAFEAWTKALACDPISAFGGIVAFNCEVDKEFAESLGKMFLEVIIAPSYTQEALDILAAKKNLRVLETGKVFDTKSSRMISKNIHGGILSQSYDNGGVDINDCKVVTDRAPTDKEWADLMFAWKAVKYVKSNAIVYARDTQTVGIGAGQMSRVDSARIGAEKAQAHQGAKGSAVASDAFFPFADGLEECIKAGATAVIQPGGSKNDQEVIDAANKAGITMVFTNMRHFRH | not soluble |
| MSKKPTSAYVHIPFCTQICYYCDFSKVFIKNQPVDAYLEALIKEFNDYYQIKDLQTLYIGGGTPTAISGEQLDYLLTNLSKNLNLNMLEEFTIEANPGDLTPDKVAVLKQSAVNRVSLGVQTFNNKHLKQIGRGHNEAQIYESIDSLKSAGFDNISIDLIYALPNQTITDVKENVAKALALDIPHLSLYNLILEHHTVFMNKMRRGKLNLPAEDLEAEMFDYIISEMEDHGFEHYEISNFTKPGFESRHNLMYWNNAEYFGCGAGASGYVDGIRYRNRGPIQHYLKAIKEKRQARFQEERLSQSEKMEEELFLGLRKKSGISIQRFEDKFGLPLMEVYGQAIDDLEKDGLILVEKDCIRMSKKGLFLGDTVAEKFILEQK | not soluble |
| MSKKVAILVDGDFFIRCYKSHLKKQPEDLNPKKLAHHIHTYCLKHINKKNDEELYRIFFYDCKPLKKKAHYPYTQKALDLSKSPTYREREELHEHLISKPCLALRLGYLDEKNARWVIRDQEKEKKLFNRRISIEEFQNDDFIYHAKQKGVDIKIGLDIATLALKKLVQKIVLISGDSDFVPASKLARVEGIIFTLDPMGNHIREDLKEHIDYLTTRLPQFKQQ | soluble |
| MSKNDHRITHNKSDKDNLDDDFSLFRDEVKGVKKLRQDTILHAPNRNPKQKEIRRTEREASDNDFYFSDEFMPHLTDEGPTRYARSDVSKYEVKRLRRGVYVPDVFLDMHGMTQQEAKRELGAMIAYCLKENVHCACVQHGIGKHILKQNVPLWLAQHPDVLAFHQAPLEFGGDGALLVLLSIPEK | not soluble |
| MSKVLVLKSSILAGYSQSGQLTDYFIEQWREKHVADEITVRDLAANPVPVLDGELVGAMRPGDAPLTPRQQDALALSDELIAELKAHDVIVIAAPMYNFNIPTQLKNYFDLIARAGITFRYTEKGPEGLVTGKRAVVLSSRGGIHKDTPTDLIAPYLKVFLGFIGITDVNFVFAEGIAYGPEVAAKAQADAKAAIDSVVAA | soluble |
| MSKWLNVGKIVNTHGVRGEVRVLSTTDFEDDRFSSGKTLYVMRPNQNERVAVTVASHRKHKNFDLLCFEGYPSINDVEAFKGGRLQVPIEDRPELGEGEFFYHEIIGCSVVTIAGEELGKVKEILSPGANDVWVVQCRRGGKDLLIPYIEQVVKQVDLEKQQITIEPMEGLLEAAALEHHHHHH | soluble |
| MSKYNAKKVEYKGIVFDSKVECEYYQYLESNMNGTNYDHIEIQPKFELLPKLDKQRKIEYIADFALYLDDKLIEVIDIKGMPTEVAKLKAKIFRHKYRNIKLNWICKAPKYTGKTWITYEELIKARRERKREMK | not soluble |
| MSLAAGKHTKHSNRVRIIGGQCRGRKLSFTSADGLRPTPDSVREKLFNWLGQDLTGKTVLDLFGGSGALGIEAASRNAKRVLISDNNRQTVQTLQKNSRELGLGQVQIVFSDGIAYLKTVSEQFDVVFLDPPFAWQDWQILFDALKPCLNPRAFVYLEAGTLPNIPDWLTEYREGKSGQSTFELRVFQVAEEGHHHHHH | soluble |
| MSLADERIEVLKDILLELHHGASAESVQERFNQHFKGVSAIEISMMEHELMNADTGITFEDVMGLCNVHANLFKGAIADVDVPDAEQEGHPVKVFKDENLALRAAIMRIRRIIENYTKPENEDFRQEILKGLKHQFDLLGQFYHHYTRKEKLFFPIMERYGHDSPPKVMWGVDDDIRDLFKDAKATLAKLPDGSIEELSQKFEAFAKEFEEMIFKEEAILLMILLESFTQDDWLQIASESDAYGYAILKPTEKWIPHRESFDNEADADTSDNQLADALNQVQDANSPEGTNTKVINTPEGQFTITFKPKEKEAAADRTTQQPFGNGYLSVEQANLILNHLPLEITFVNKDDIFQYYNDSVPAAEMVFKRTPSQVGRNVELCHPPKVLDKVKKVFELLRNGQRDKVNMWFQSERLGKFVYVTYAAVRDQAGDFQGVLEYVQDIKPFFELDSEFNRDEGHHHHHH | soluble |
